Patent US20190315864A1

Target: Fc protein
Assay: ELISA, Fc protein coated, 10 ng VHH/well

Row | Binder | OD (against Fc)
1 | CTLA4 heavy chain single domain antibody No. J38 (VHH) VHH: QVQLQESGGGSVQAGGSLRLSCAPSRYSGALMGWFRQAPGKEREGVAVISRSGLTTYYADSVKGRFTISQDTAKNTIYLQMNSMKPEDTAMYYCVAGWHVGGTWSETSSYDYWGQGTQVTVSS | 0.752 OD405
2 | CTLA4 heavy chain single domain antibody No. 188 (VHH) VHH: QVQLQESGGGSVQAGGSLRLSCAASGYTYSSVCMGWFRQALGKEREAVVGIDGDGITMYANSVKGRFTISKDNAKNTLYLQMNSLKPEDTAMYYCASGGGQGDGSCALTYWGQGTQVTVSS | 1.02 OD405
